Tests used:
[1] = biological target: 人CD40(ECD)-his蛋白 (human) (UniProt P25942); assay: SPR Biacore 8K; human CD40(ECD)-his coupled to CM5, antibody as analyte, 1:1 model
[2] = biological target: 人CD40 (HEK293A细胞表达) (human) (UniProt P25942); assay: cell-based or functional assay
人CD40 (HEK293A细胞表达) (human), sequence (P25942 21-277 limits assumed): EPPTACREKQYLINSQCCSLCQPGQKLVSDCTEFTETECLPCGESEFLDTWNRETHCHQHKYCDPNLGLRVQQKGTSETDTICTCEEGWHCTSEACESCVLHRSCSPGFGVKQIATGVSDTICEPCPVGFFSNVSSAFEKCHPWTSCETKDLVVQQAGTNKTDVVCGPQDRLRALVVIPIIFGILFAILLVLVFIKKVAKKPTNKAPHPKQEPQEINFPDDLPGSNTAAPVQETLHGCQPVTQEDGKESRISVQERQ

人CD40(ECD)-his蛋白 (human), sequence (P25942 21-193): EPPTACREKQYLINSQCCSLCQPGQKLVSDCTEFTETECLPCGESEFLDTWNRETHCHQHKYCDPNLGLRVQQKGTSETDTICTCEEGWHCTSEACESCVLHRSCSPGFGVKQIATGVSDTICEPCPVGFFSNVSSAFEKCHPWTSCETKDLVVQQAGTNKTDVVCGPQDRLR

Row | Substance | Kd [1] [nM] | HEK-Blue EC50 [2] [µg/mL]
1 | ADC1013 (antibody) | 29 | 1.03
2 | RO7009789 (antibody) | 1.71 | 0.0233
